Changes are numbered by the printed parent chain.
T1: human FcgRIIa type H extracellular domain (human, UniProt P12318 34-217)
T1 construct: extracellular domain; also called hFcgRIIaH
T1 sequence (looked up): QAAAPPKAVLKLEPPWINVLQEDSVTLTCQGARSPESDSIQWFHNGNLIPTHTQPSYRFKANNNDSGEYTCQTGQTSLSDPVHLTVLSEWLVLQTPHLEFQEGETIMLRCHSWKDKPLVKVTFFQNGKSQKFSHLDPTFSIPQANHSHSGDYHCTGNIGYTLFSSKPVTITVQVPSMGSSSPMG

T2: human FcgRIIa type R extracellular domain (human, UniProt P12318 34-217)
T2 construct: extracellular domain; also called hFcgRIIaR
T2 sequence (looked up): T1 sequence (looked up) with H134R

T3: human FcgRIIb extracellular domain (human, UniProt P31994 43-217)
T3 construct: extracellular domain; also called hFcgRIIb
T3 sequence (looked up): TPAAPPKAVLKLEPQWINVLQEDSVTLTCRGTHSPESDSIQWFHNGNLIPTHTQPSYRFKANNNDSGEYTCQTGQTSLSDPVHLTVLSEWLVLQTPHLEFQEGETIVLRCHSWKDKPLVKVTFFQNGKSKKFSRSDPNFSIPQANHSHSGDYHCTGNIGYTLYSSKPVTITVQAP

B1: A375-SCF041a/B167-Lamlib (antibody, human IgG1, lambda)
heavy: EVQLVESGGGLVKPGGSLRLSCAASGFTFSTFTMNWVRQAPGKGLEWVSSISSKSTYIEYADSFKVRFTISRDNAKNSLYLQMNSLRAEDTAVYYCARYGAKNFLNWVFDYWGQGTLVTVSSASTKGPSVFPLAPSSKSTSGGTAALGCLVKDYFPEPVTVSWNSGALTSGVHTFPAVLQSSGLYSLSSVVTVPSSSLGTQTYICNVNHKPSNTKVDKRVEPKSCDKTHTCPPCPAPELLNGPSVFLFPPKPKDTLMISRTPEVTCVVVDVSDEDPEVKFNWYVDGVEVHNAKTKPREEQYNSTYRVVSVLTVLHQDWLNGKEYKCKVSNKALPKPIEKTISKAKGQRREPQVYTLPPSREEMTKNQVSLTCLVKGFYPSDIAVEWESNGQPENNYKTTPPVLDSDGSFFLYSKLTVDKSRWQQGNVFSCSVMHEALHNHYTQKSLSLSP
light: QSALTQPPSASGSPGQTVTISCTGTRYDVGYYEYVSWYQQHPGKAPKLMIYETSKRLSGVPDRFSGSKSGNTASLTVSGLQAEDEADYYCSSYRYEHQVSFGGGTKLTVLGQPKAAPSVTLFPPSSEELQANKATLVCLISDFYPGAVTVAWKADSSPVKAGVETTTPSKQSNNKYAASSYLSLTPEQWKSHRSYSCQVTHEGSTVEKTVAPTECS
B2: A375-SCF041aPh/B167-Lamlib (antibody, human IgG1, lambda)
heavy: B1 heavy with L240W
light: B1 light
B3: A375-SCF042a/B167-Lamlib (antibody, human IgG1, lambda)
heavy: B1 heavy with R348P, D418K
light: B1 light
notes: copies: 2 + 2
B4: A375-SCF043a/B167-Lamlib (antibody, human IgG1, lambda)
heavy: B1 heavy with D418K
light: B1 light
B5: A375-SCF043aPh/B167-Lamlib (antibody, human IgG1, lambda)
heavy: B1 heavy with L240W, D418K
light: B1 light
B6: A375-SCF056a/B167-Lamlib (antibody, human IgG1, lambda)
heavy: B1 heavy with Q316R, R348P
light: B1 light
notes: copies: 2 + 2
B7: A375-SCF056aPh/B167-Lamlib (antibody, human IgG1, lambda)
heavy: B1 heavy with L240W, Q316R, R348P
light: B1 light
notes: copies: 2 + 2
B8: A375-SCF057a/B167-Lamlib (antibody, human IgG1, lambda)
heavy: B1 heavy with Q316R
light: B1 light
B9: A375-SCF057aPh/B167-Lamlib (antibody, human IgG1, lambda)
heavy: B1 heavy with L240W, Q316R
light: B1 light
B10: A375-SCF059a/B167-Lamlib (antibody, human IgG1, lambda)
heavy: B1 heavy with Q316R, R348P, D418K
light: B1 light
notes: copies: 2 + 2
B11: A375-SCF059aPh/B167-Lamlib (antibody, human IgG1, lambda)
heavy: B1 heavy with L240W, Q316R, R348P, D418K
light: B1 light
notes: copies: 2 + 2

The binders below were run against T4, human FcgRIa extracellular domain (human, UniProt P12314 16-292) (assay: SPR 25C).
T4 construct: extracellular domain; also called hFcgRIa
T4 sequence (P12314 16-292): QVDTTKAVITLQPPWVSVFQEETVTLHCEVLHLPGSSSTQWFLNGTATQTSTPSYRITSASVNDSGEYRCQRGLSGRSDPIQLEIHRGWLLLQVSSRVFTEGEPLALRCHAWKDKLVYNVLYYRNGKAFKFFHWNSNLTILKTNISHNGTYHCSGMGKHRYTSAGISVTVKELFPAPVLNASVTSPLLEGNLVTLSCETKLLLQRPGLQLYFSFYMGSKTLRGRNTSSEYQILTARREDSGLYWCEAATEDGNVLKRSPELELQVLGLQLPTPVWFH

Binder	binding per 1RU antibody	relative binding (A375-G1T3/B167-Lamlib=1)
B1	0.0446 RU	0.55
B2	0.0013 RU	0.02
B3	0.0396 RU	0.49
B4	0.0429 RU	0.53
B5	0.0011 RU	0.01
B6	0.0395 RU	0.49
B7	0.0019 RU	0.02
B8	0.0405 RU	0.5
B9	0.0021 RU	0.03
B10	0.038 RU	0.47
B11	0.0089 RU	0.11

The binders below were run against T1, human FcgRIIa type H extracellular … (assay: SPR 25C).

Binder	binding per 1RU antibody	relative binding (A375-G1T3/B167-Lamlib=1)
B1	0.0571 RU	1.01
B2	0.0371 RU	0.65
B3	0.0522 RU	0.92
B4	0.0552 RU	0.97
B5	0.0349 RU	0.62
B6	0.0529 RU	0.93
B7	0.0314 RU	0.55
B8	0.0525 RU	0.93
B9	0.0365 RU	0.64
B10	0.0502 RU	0.88
B11	0.0332 RU	0.59

What follows are binders tested against T2, human FcgRIIa type R extracellular … (assay: SPR 25C).

Binder	binding per 1RU antibody	relative binding (A375-G1T3/B167-Lamlib=1)
B1	0.0376 RU	0.81
B2	0.0371 RU	0.8
B3	0.0327 RU	0.71
B4	0.0361 RU	0.78
B5	0.0349 RU	0.75
B6	0.0331 RU	0.71
B7	0.0299 RU	0.64
B8	0.0367 RU	0.79
B9	0.0364 RU	0.79
B10	0.0319 RU	0.69
B11	0.0319 RU	0.69

The binders below were run against T3, human FcgRIIb extracellular domain (assay: SPR 25C).

Binder	binding per 1RU antibody	relative binding (A375-G1T3/B167-Lamlib=1)
B1	0.0433 RU	3.95
B2	0.035 RU	3.2
B3	0.0393 RU	3.59
B4	0.0419 RU	3.82
B5	0.0339 RU	3.1
B6	0.0399 RU	3.64
B7	0.0292 RU	2.67
B8	0.0412 RU	3.76
B9	0.0345 RU	3.15
B10	0.0358 RU	3.27
B11	0.0291 RU	2.66

Each binder was assayed against T5, human FcgRIIIa F158 extracellular domain (human, UniProt P08637 17-208) (assay: SPR 25C).
T5 construct: extracellular domain; also called hFcgRIIIaF
T5 sequence (P08637 17-208): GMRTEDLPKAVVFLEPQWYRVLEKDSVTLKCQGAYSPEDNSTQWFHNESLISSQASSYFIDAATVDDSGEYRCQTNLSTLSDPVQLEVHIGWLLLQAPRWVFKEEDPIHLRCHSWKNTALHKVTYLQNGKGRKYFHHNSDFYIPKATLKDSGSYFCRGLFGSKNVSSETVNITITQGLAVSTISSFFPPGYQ

Binder	binding per 1RU antibody	relative binding (A375-G1T3/B167-Lamlib=1)
B1	0.0009 RU	0.04
B2	0.0007 RU	0.03
B3	0.0003 RU	0.01
B4	0.0011 RU	0.05
B5	0.0001 RU	0
B6	0.0011 RU	0.05
B7	0.001 RU	0.05
B8	0.0013 RU	0.06
B9	-0.0003 RU	-0.02
B10	0.001 RU	0.05
B11	0.0003 RU	0.01

Each binder was assayed against T6, human FcgRIIIa V158 extracellular domain (human, UniProt P08637 17-208) (assay: SPR 25C).
T6 construct: extracellular domain; also called hFcgRIIIaV
T6 sequence (P08637 17-208 F176V): as the sequence (P08637 17-208) above, with F160V counted along it

Binder	binding per 1RU antibody	relative binding (A375-G1T3/B167-Lamlib=1)
B1	0.0022 RU	0.03
B2	0.0005 RU	0.01
B3	0.0014 RU	0.02
B4	0.0025 RU	0.04
B5	0.0001 RU	0
B6	0.0023 RU	0.03
B7	0.001 RU	0.01
B8	0.0025 RU	0.04
B9	0.0005 RU	0.01
B10	0.0021 RU	0.03
B11	0.0028 RU	0.04

These binders were tested against human FcRn (human, UniProt P55899 24-290; P61769 21-119) (assay: SPR 25C pH 6.0, steady state).
How it was run: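 Antibody (~400 RU) captured on anti-Fab-lambda sensor chip, human FcRn injected as analyte.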

human FcRn, sequence (P55899 24-290 limits assumed, chain 1 of 2): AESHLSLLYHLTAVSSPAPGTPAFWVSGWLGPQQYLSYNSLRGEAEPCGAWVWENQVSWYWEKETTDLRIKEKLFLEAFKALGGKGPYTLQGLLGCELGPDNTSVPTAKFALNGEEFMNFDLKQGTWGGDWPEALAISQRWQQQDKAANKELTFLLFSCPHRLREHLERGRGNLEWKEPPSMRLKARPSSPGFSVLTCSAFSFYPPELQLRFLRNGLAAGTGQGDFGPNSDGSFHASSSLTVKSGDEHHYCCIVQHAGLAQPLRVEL
human FcRn, sequence (P61769 21-119 limits assumed, chain 2 of 2): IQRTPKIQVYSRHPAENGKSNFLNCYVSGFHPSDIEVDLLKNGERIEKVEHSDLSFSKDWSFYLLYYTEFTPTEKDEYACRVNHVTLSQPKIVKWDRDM

Binder	Kd
B1	1100 nM
B2	1130 nM
B3	1490 nM
B4	1180 nM
B5	1210 nM
B6	956 nM
B7	1000 nM
B8	928 nM
B9	909 nM
B10	1030 nM
B11	1050 nM
